Read-outs that look alike come from different tables or passages of the source.
Assays:
[1] = test system: SmCstR (Streptococcus mitis SVGS_061); experiment: fluorescence anisotropy; settings: 10 nM dsDNA, 25 mM Tris-HCl, 200 mM NaCl, 2 mM EDTA, 2 mM TCEP, pH 8.0, 25 C
[2] = target: C9A SpCstR C9A (Streptococcus pneumoniae D39) (UniProt A0A0H2ZNA4); experiment: fluorescence anisotropy; settings: 10 nM dsDNA, 25 mM Tris-HCl, 200 mM NaCl, 2 mM EDTA, 2 mM TCEP, pH 8.0, 25 C
C9R SpCstR = C9R SpCstR (Streptococcus pneumoniae D39, UniProt A0A0H2ZNA4 1-85, C9R); experiment: fluorescence anisotropy
crystal structure [3] = target: the molecule itself; experiment: crystal structure
crystal structure [4] = target: the molecule itself; experiment: crystal structure; remark: listed apart in the source
crystal structure [5] = target: the molecule itself; experiment: crystal structure; remark: listed apart in the source

Question: For “TACCTCCAAATATACCCTTATGGGGTATATTAAA (double strand) [S. mitis cst operator]”, which Ka [1] is on record?
Answer: 1.4e+08 M⁻¹

Question: With Sp adcA (AdcR) operator as the molecule, how does the Ka [2] read?
Answer: 490000 M⁻¹

B1: S. mitis cst operator (dsDNA)
DNA 1: TACCTCCAAATATACCCTTATGGGGTATATTAAA
DNA 2: TTTAATATACCCCATAAGGGTATATTTGGAGGTA
Question: Does B1 bind (C9R SpCstR)?
Answer: binds

B2: selenomethionine (SeMet)-substituted C9A SpCstR (natural protein, Streptococcus pneumoniae D39)
chain: TNSKYITALKRSEGQLRGIQKMIEGDRDCADIVTQLTAVRSSVERVIEMIITENLTECINQPLDDSEAQKERLEKAIRYLIKRK
modifications: selenomethionine in place of methionine
Question: How did the “stoichiometry N” value (crystal structure [3]) turn out when B2 was run?
Answer: 4

B3: C9A S. pneumoniae CstR (locus tag SPD_0073) (natural protein, Streptococcus pneumoniae D39)
chain: TNSKYITALKRSEGQLRGIQKMIEGDRDCADIVTQLTAVRSSVERVIEMIITENLTECINQPLDDSEAQKERLEKAIRYLIKRK
Question: For B3, which “stoichiometry N” value (crystal structure [4]) is on record?
Answer: 6

B4: C9A/N55A S. pneumoniae CstR (locus tag SPD_0073) (natural protein, Streptococcus pneumoniae D39)
chain: TNSKYITALKRSEGQLRGIQKMIEGDRDCADIVTQLTAVRSSVERVIEMIITEALTECINQPLDDSEAQKERLEKAIRYLIKRK
Question: For B4, which “stoichiometry N” value (crystal structure [5]) is on record?
Answer: 4

— article PMC8643695 (Nucleic Acids Research, 2021)
